Laboratory results from US20230416942A1 (YALE UNIVERSITY, published 2023).
Values belong to the binder of their own block, whether it stands above or below them.

What was measured:
[1] = target: REAP Off-Targets; experiment: REAP, nanobody-Fc on yeast-displayed human antigen library
[2] = target: T1, TNFSF18 (recombinant human protein) (human, UniProt Q9UNG2 52-177, limits assumed); experiment: ELISA, recombinant human protein coated, nanobody-Fc titrated, anti-human IgG HRP
T1 construct: Recombinant human protein immobilized at 5 ug/mL for ELISA
T1 sequence (looked up): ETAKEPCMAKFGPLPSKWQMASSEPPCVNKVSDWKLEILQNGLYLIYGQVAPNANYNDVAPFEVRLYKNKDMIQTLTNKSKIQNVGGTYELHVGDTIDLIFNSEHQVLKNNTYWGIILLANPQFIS
Experimental: (§1) Recombinant human protein was diluted in PBS to a final concentration of 5 μg/mL and was immobilized on 96-well flat bottom MaxiSorp plates (Thermo Fisher Scientific) and placed at 4° C. overnight. Plates were washed three times with 225 μL ELISA wash buffer (PBS with 0.05% Tween 20) and 200 μL ELISA blocking buffer (PBS with 1% Casein) was added to the well. Plates were incubated with shaking for 2 hours at room temperature. ELISA blocking buffer was removed from the wells and appropriate dilutions of recombinant nanobodies in 100 μL ELISA blocking buffer was added to each well. Plates were incubated with shaking for 2 hours at room temperature. Plates were washed 3 times with 225 μL ELISA wash buffer and 1:5000 goat anti-human IgG HRP (Millipore Sigma) in 100 μL ELISA blocking buffer was added to the wells. Plates were incubated with shaking for 1 hour at room temperature. Plates were washed 6 times with 225 μL ELISA wash buffer. 50 μL TMB substrate (BD Biosciences) was added to the wells and plates were incubated for 15 minutes in the dark at room temperature. 50 μL 1 M sulfuric acid was added to the wells and absorbance at 450 nm was measured in a Synergy HTX Multi-Mode Microplate Reader (BioTek).

[3] = target: T2, IL17A (human, UniProt Q16552 24-155); experiment: BLI, AHC sensor, nanobody-Fc captured, antigen in solution
T2 construct: Recombinant human protein in ELISA and BLI
T2 sequence (looked up): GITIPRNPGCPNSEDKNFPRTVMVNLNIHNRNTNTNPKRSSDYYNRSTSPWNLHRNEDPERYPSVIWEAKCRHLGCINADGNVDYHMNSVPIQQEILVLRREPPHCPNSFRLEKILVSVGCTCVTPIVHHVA
Description: Octet RED96 System (ForteBio) was used to perform kinetic measurement of nanobody binding to antigens. For Anti-Penta-His Biosensors (HIS1K), his-tagged recombinant human proteins were first immobilized onto the biosensors, and recombinant nanobodies fused with human IgG1 were applied to detect binding. For Anti-Human IgG Fc Capture Biosensors (AHC), recombinant nanobodies fused with human IgG1 were first loaded onto the biosensors, and probes were dipped in serial dilutions of recombinant human antigens.

[4] = target: T2, IL17A; experiment: ELISA, plate-coated recombinant human protein, nanobody-Fc
Experimental: as §1

[5] = target: T3, CD3D (human, UniProt P04234 22-105); experiment: as above
T3 construct: Recombinant human protein in ELISA
T3 sequence (P04234 22-105 limits assumed): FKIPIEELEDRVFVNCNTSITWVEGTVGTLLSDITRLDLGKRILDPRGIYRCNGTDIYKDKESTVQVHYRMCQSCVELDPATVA
Experimental: as §1

[6] = target: T4, IL13 (human, UniProt P35225 35-146, limits assumed); experiment: as above
T4 construct: Recombinant human protein in ELISA
T4 sequence (P35225 35-146 limits assumed): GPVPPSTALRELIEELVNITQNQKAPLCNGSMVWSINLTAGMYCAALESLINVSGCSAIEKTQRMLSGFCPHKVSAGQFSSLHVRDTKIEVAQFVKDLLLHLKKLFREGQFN
Experimental: as §1

[7] = target: T5, TIGIT (human, UniProt Q495A1 22-141); experiment: as above
T5 construct: Recombinant human protein in ELISA
T5 sequence (looked up): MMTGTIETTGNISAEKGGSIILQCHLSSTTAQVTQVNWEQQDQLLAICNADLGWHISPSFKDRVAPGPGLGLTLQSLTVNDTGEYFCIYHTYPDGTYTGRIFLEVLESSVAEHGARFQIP
Experimental: as §1

[8] = target: T6, CEACAM4 (human, UniProt O75871 36-155, limits assumed); experiment: as above
T6 construct: Recombinant human protein in ELISA
T6 sequence (looked up): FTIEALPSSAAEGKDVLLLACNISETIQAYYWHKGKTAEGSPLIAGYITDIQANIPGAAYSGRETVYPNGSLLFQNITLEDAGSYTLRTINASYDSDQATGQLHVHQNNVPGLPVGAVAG
Experimental: as §1

[9] = target: T7, IL1RN (human, UniProt P18510 26-177); experiment: as above
T7 construct: Recombinant human protein in ELISA and BLI
T7 sequence (P18510 26-177 limits assumed): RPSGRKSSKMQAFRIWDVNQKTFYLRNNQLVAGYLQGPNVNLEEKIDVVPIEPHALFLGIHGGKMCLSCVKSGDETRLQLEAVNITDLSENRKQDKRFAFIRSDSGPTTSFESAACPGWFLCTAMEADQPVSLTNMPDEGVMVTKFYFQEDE
Experimental: as §1

[10] = target: T8, CCL16 (human, UniProt O15467 24-120); experiment: as above
T8 construct: Recombinant human protein in ELISA and BLI
T8 sequence (looked up): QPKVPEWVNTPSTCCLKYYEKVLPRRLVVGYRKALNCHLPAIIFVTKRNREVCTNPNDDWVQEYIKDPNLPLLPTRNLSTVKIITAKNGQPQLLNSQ
Experimental: as §1

[11] = target: T9, IL21 (human, UniProt Q9HBE4 32-162, limits assumed); experiment: as above
T9 construct: Recombinant human protein in ELISA
T9 sequence (Q9HBE4 32-162 limits assumed): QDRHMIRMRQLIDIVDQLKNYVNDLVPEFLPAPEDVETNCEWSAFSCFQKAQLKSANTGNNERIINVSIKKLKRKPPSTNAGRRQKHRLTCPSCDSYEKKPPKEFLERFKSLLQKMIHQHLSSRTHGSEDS
Experimental: as §1

[12] = target: T10, TNF (recombinant human protein) (human, UniProt P01375 77-233); experiment: ELISA, recombinant human protein coated, nanobody-Fc titrated, anti-human IgG HRP
T10 construct: Recombinant human protein immobilized at 5 ug/mL for ELISA
T10 sequence (P01375 77-233 limits assumed): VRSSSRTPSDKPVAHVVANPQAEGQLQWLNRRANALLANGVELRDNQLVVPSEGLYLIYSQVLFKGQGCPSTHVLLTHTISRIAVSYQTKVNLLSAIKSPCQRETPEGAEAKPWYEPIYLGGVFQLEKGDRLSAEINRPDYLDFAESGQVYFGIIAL
Experimental: as §1

B3: CD3D_Nb2.35 (Fc fusion)
chain: QVQLQESGGGLVQAGGSLRLSCAASGTIFAYWYMGWYRQAPGKEREFVAAIGDGSSTYYADSVKGRFTISRDNAKNTVYLQMNSLKPEDTAVYYCAAEAPGYGHTYWGQGTQVTVSS
notes: Nanobody expressed and tested as Fc fusion (human IgG1); not shown: human IgG1 Fc (vector pCER243)
EC50 [5]: 1.72 nM

B4: IL13_Nb2.41 (Fc fusion)
chain: QVQLQESGGGLVQAGGSLRLSCAASGTIFVDEFMGWYRQAPGKEREFVASINDGGSTYYADSVKGRFTISRDNAKNTVYLQMNSLKPEDTAVYYCAVFEPSPDGDPFGDRAWFWYWGQGTQVTVSS
notes: as for B3
EC50 [6]: 1.02 nM

B6: CEACAM4_Nb36 (Fc fusion)
chain: QVQLQESGGGLVQAGGSLRLSCAASGNIFLGPYMGWYRQAPGKEREFVASINYGASTNYADSVKGRFTISRDNAKNTVYLQMNSLKPEDTAVYYCAAGYYSNDYYYYEYSYWGQGTQVTVSS
notes: as for B3
EC50 [8]: 15.6 nM

B7: IL1RN_Nb75 (Fc fusion)
chain: QVQLQESGGGLVQAGGSLRLSCAASGNIFRYDNMGWYRQAPGKEREFVATITYGSNTYYADSVKGRFTISRDNAKNTVYLQMNSLKPEDTAVYYCAAYFPYRSYDNSADTSSHSYWGQGTQVTVSS
notes: as for B3
EC50 [9]: 6.9 nM

B8: CCL16_Nb2.5 (Fc fusion)
chain: QVQLQESGGGLVQAGGSLRLSCAASGYIFGVYDMGWYRQAPGKERELVATISAGGTTNYADSVKGRFTISRDNAKNTVYLQMNSLKPEDTAVYYCAAYTDYSPYDGAALVYWGQGTQVTVSS
notes: as for B3
EC50 [10]: 1.78 nM

B9: CD3D_Nb2.36 (Fc fusion)
chain: QVQLQESGGGLVQAGGSLRLSCAASGSISAYWAMGWYRQAPGKEREFVAAINFGANTYYADSVKGRFTISRDNAKNTVYLQMNSLKPEDTAVYYCAAERDGDYHDYWGQGTQVTVSS
notes: as for B3
EC50 [5]: 29.6 nM

B11: CD3D_Nb2.34 (Fc fusion)
chain: QVQLQESGGGLVQAGGSLRLSCAASGTISTLDYMGWYRQAPGKEREFVAAINYGSNTYYADSVKGRFTISRDNAKNTVYLQMNSLKPEDTAVYYCAAADVTRPAYDYWGQGTQVTVSS
notes: as for B3
EC50 [5]: 0.575 nM

B12: CEACAM4_Nb41 (Fc fusion)
chain: QVQLQESGGGLVQAGGSLRLSCAASGTISRSSIMGWYRQAPGKEREFVAGISYGSTTYYADSVKGRFTISRDNAKNTVYLQMNSLKPEDTAVYYCAVRDLYVWDHAYWGQGTQVTVSS
notes: as for B3
EC50 [8]: 32.7 nM

B14: CEACAM4_Nb40 (Fc fusion)
chain: QVQLQESGGGLVQAGGSLRLSCAASGTISPGYGMGWYRQAPGKEREFVATIAFGSSTYYADSVKGRFTISRDNAKNTVYLQMNSLKPEDTAVYYCAVAIYIPYFFRYWGQGTQVTVSS
notes: as for B3
EC50 [8]: 14.5 nM

B18: CD3D_Nb2.33 (Fc fusion)
chain: QVQLQESGGGLVQAGGSLRLSCAASGSIFYAEYMGWYRQAPGKEREFVAAITAGSTTYYADSVKGRFTISRDNAKNTVYLQMNSLKPEDTAVYYCAADGYYYGIEFTYYEYWGQGTQVTVSS
notes: as for B3
EC50 [5]: 8.22 nM

B19: IL13_Nb2.42 (Fc fusion)
chain: QVQLQESGGGLVQAGGSLRLSCAASGTISATDFMGWYRQAPGKERELVAAINHGGSTYYADSVKGRFTISRDNAKNTVYLQMNSLKPEDTAVYYCAAARDDYPWHDYWGQGTQVTVSS
notes: as for B3
EC50 [6]: 38.4 nM

Continued, values first:

REAP Off-Targets (number) [1]: 4 off-targets | EC50 [2]: 6.05 nM
B1: TNFSF18_Nb98 (Fc fusion)
chain: QVQLQESGGGLVQAGGSLRLSCAASGSIFYVIAMGWYRQAPGKERELVATITAGTNTYYADSVKGRFTISRDNAKNTVYLQMNSLKPEDTAVYYCAVYALQQDVYDRSHAYWGQGTQVTVSS
notes: Nanobody expressed as an Fc fusion protein (fused with human IgG1) in Expi293 cells; not shown: human IgG1 Fc; nanobodies expressed as Fc fusion from vector pCER243

Kd [3]: 0.656 nM | EC50 [4]: 0.179 nM
B2: IL17A_Nb2.92 (Fc fusion)
chain: QVQLQESGGGLVQAGGSLRLSCAASGTISQGDYMGWYRQAPGKEREFVASIAIGTITYYADSVKGRFTISRDNAKNTVYLQMNSLKPEDTAVYYCAVSVQFSYDFYYWGQGTQVTVSS
notes: as for B3

EC50 [7]: 29.8 nM
B5: TIGIT_Nb2.81 (Fc fusion)
chain: QVQLQESGGGLVQAGGSLRLSCAASGTISLLEYMGWYRQAPGKEREFVAAITGGSSTNYADSVKGRFTISRDNAKNTVYLQMNSLKPEDTAVYYCAASLVPYDKDNLFFGYWGQGTQVTVSS
notes: as for B3

EC50 [11]: 7.16 nM
B10: IL21_Nb2.30 (Fc fusion)
chain: QVQLQESGGGLVQAGGSLRLSCAASGTIFRETVMGWYRQAPGKERELVAAIDDGTSTYYADSVKGRFTISRDNAKNTVYLQMNSLKPEDTAVYYCAARASYTYGRLRFRYWGQGTQVTVSS
notes: as for B3

REAP Off-Targets (number) [1]: 7 off-targets | EC50 [12]: 23.8 nM
B13: TNF_Nb109 (Fc fusion)
chain: QVQLQESGGGLVQAGGSLRLSCAASGYISGEWFMGWYRQAPGKERELVAGISRGSTTYYADSVKGRFTISRDNAKNTVYLQMNSLKPEDTAVYYCAVYLTHKGYDGADGVVHHRYWGQGTQVTVSS
notes: as for B1

Kd [3]: 0.977 nM | EC50 [4]: 0.249 nM
B15: IL17A_Nb2.90 (Fc fusion)
chain: QVQLQESGGGLVQAGGSLRLSCAASGYISLRFYMGWYRQAPGKEREFVATIDDGSSTYYADSVKGRFTISRDNAKNTVYLQMNSLKPEDTAVYYCAVTAQTYYDHVYWGQGTQVTVSS
notes: as for B3

REAP Off-Targets (number) [1]: 2 off-targets | EC50 [12]: 5.57 nM
B16: TNF_Nb105 (Fc fusion)
chain: QVQLQESGGGLVQAGGSLRLSCAASGTISVTYFMGWYRQAPGKERELVAGIGTGANTYYADSVKGRFTISRDNAKNTVYLQMNSLKPEDTAVYYCAAYIGAPVYGDGQSRNKAKVYDYWGQGTQVTVSS
notes: as for B1

EC50 [11]: 3.14 nM
B17: IL21_Nb2.28 (Fc fusion)
chain: QVQLQESGGGLVQAGGSLRLSCAASGSISNTYVMGWYRQAPGKERELVAAIGHGGTTYYADSVKGRFTISRDNAKNTVYLQMNSLKPEDTAVYYCAVYLSRVRKFYYWGQGTQVTVSS
notes: as for B3

EC50 [7]: 483 nM
B20: TIGIT_Nb2.84 (Fc fusion)
chain: QVQLQESGGGLVQAGGSLRLSCAASGNISYVRWMGWYRQAPGKERELVAGIGVGGITNYADSVKGRFTISRDNAKNTVYLQMNSLKPEDTAVYYCAATDVDWILYRYWGQGTQVTVSS
notes: as for B3

EC50 [7]: 12.8 nM
B21: TIGIT_Nb2.82 (Fc fusion)
chain: QVQLQESGGGLVQAGGSLRLSCAASGTISVVQDMGWYRQAPGKERELVAGIAKGGNTYYADSVKGRFTISRDNAKNTVYLQMNSLKPEDTAVYYCAASPIPFSYAYPAYHYWGQGTQVTVSS
notes: as for B3

EC50 [11]: 3.73 nM
B22: IL21 Nb2.29 (Fc fusion)
chain: QVQLQESGGGLVQAGGSLRLSCAASGNISWGTIMGWYRQAPGKEREFVAAISHGANTNYADSVKGRFTISRDNAKNTVYLQMNSLKPEDTAVYYCAAQSRAGSTRPRYHKYWGQGTQVTVSS
notes: as for B3
